Laboratory results taken from paper doi:10.1101/2023.02.27.530324v2.

Columns and labels:
[1] = substrate: CCCCCCCCC=O; test: in vivo luminescence of E. coli cells, aldehyde titration, nonlinear fit; format: cell-based, Photorhabdus luminescens; conditions: whole E. coli K12 MG1655 pABX cells; apparent constant; cellular FMNH2 and O2
[2] = substrate: CCCCCC=O; test: as above; format: cell-based, Photorhabdus luminescens; conditions: whole E. coli K12 MG1655 pABX cells; apparent constant; cellular FMNH2 and O2

B1: PlLuxAB (Photorhabdus luminescens) (protein)
chain: MKFGNFLLTYQPPQFSQTEVMKRLVKLGRISEECGFDTVWLLEHHFTEFGLLGNPYVAAAYLLGATKKLNVGTAAIVLPTAHPVRQLEDVNLLDQMSKGRFRFGICRGLYNKDFRVFGTDMNNSRALAECWYGLIKNGMTEGYMEADNEHIKFHKVKVNPAAYSRGGAPVYVVAESASTTEWAAQFGLPMILSWIINTNEKKAQLELYNEVAQEYGHDIHNIDHCLSYITSVDHDSIKAKEICRKFLGHWYDSYVNATTIFDDSDQTRGYDFNKGQWRDFVLKGHKDTNRRIDYSYEINPVGTPQECIDIIQKDIDATGISNICCGFEANGTVDEIIASMKLFQSDVMPFLKEKQRSLLY
- Km [1]: 0.025 ± 0.002 mM
- Km [2]: 7 ± 2 mM
